# Source: PMC3985386
# Experiments:
# [1] = target: Glutathiolated H-Ras^1-166 (Ras^SSG) (human) (UniProt P01112)
# [2] = target: Truncated human H-ras (H-Ras^1-166), wild type (human) (UniProt P01112)
substance,measurement,setting,value
Minimal catalytic domain of Son of Sevenless (SOS^cat) (domain or fragment),"rate of MANT-GDP dissociation from 1 uM Ras with SOS^cat at a 1:1 ratio, 25°C",[1],0.00185 s⁻¹
same,"rate of MANT-GDP dissociation from 1 uM Ras with SOS^cat at a 1:1 ratio, 25°C",[2],0.00202 s⁻¹
